Data taken from patent CN112830969A (JIANGSU NOVOMAB BIOPHARMACEUTICALS INC, dated 2021).

B1: 对照抗体(来自专利CN20148000912) (antibody, V domains shown)
VH: QIQLVQSGPELKKPGETVKISCKASGYTFTNYGMNWVKQAPGKGLKWMGWINTNTGEPTYAEEFKGRFAFSLETSASTAYLQINNLKNEDTATYFCARLGFGNAMDYWGQGTSVTVSS
VL: DIVMTQSPSSLTVTAGEKVTMSCKSSQSLLNSGNQKNYLTWYQQKPGQPPKLLIYWASTRESGVPDRFTGSGSGTDFTLTISSVQAEDLAVYYCQNDYSYPLTFGAGTKLELK
B2: 人源化抗体HA1LA1 (antibody, human IgG1, kappa, V domains shown)
VH: QVQLVESGGGVVQPGRSLRLSCAASGFTFSTYGVHWVRQAPGKGLEWVAVIWNGGNTDYNAAFISRFTISRDNSKNTLYLQMNSLRAEDTAVYYCARNRRGGGFGMDYWGQGTLVTVSS
VL: DIVMTQSPDSLAVSLGERATINCKSSQSLLNGGIQKNYLTWYQQKPGQPPKLLIYWASTRESGVPDRFSGSGSGTDFTLTISSLQAEDVAVYYCQNAYTYPFTFGQGTKLEIKR
notes: also called Claudin18.2单抗对照

What was measured:
[1] = target: T1, 人Claudin18.2 (过表达细胞) (human, UniProt P56856-2 1-261); test: cell-based or functional assay
[2] = target: T2, 人Claudin18.1 (过表达细胞) (human, UniProt P56856 1-261); test: cell ELISA on 293 cells transfected with human Claudin18.1
T2 construct: whole, on cells; also called CLDN18.1; Caludin18.1

[3] = target: T1, 人Claudin18.2 (过表达细胞); test: cell ELISA on 293 cells transfected with human Claudin18.2
[4] = target: T3, 人Claudin18.2-His重组蛋白(Kactus,Cat.CLD-HE1821) (human, UniProt P56856-2 1-261, limits assumed); test: ELISA, human Claudin18.2-His coated
T3 construct: Bought protein; also called Claudin18.2重组蛋白; not shown: His tag

Row | ADCC活性 EC50 (靶细胞的裂解百分比, LDH; NUGC4-Claudin18.2靶细胞, NK92效应细胞) [1] [nM] | binding result [2] | EC50 [3] [µg/mL] | EC50 [4] [µg/mL] | Binder
1 | 0.0575 | no binding | 0.119 |  | B1
2 | 0.0126 | no binding | 0.028 | 0.49 | B2
